Bridge positions count the residues as written; N and C are the ends.
Legend:
[1] = molecular target: T1, beta-catenin Armadillo domain, residues 134-665 (human, UniProt P35222 134-665, biotinylated through the N-terminal yBBr tag for SPR; tag cleaved off for crystallography); assay: SPR, immobilized β-catenin, MDM2 flowed in the presence of 1 µM Helicon H332 (1.m114)
T1 construct: also called β-catenin; CTNNB1
T1 sequence: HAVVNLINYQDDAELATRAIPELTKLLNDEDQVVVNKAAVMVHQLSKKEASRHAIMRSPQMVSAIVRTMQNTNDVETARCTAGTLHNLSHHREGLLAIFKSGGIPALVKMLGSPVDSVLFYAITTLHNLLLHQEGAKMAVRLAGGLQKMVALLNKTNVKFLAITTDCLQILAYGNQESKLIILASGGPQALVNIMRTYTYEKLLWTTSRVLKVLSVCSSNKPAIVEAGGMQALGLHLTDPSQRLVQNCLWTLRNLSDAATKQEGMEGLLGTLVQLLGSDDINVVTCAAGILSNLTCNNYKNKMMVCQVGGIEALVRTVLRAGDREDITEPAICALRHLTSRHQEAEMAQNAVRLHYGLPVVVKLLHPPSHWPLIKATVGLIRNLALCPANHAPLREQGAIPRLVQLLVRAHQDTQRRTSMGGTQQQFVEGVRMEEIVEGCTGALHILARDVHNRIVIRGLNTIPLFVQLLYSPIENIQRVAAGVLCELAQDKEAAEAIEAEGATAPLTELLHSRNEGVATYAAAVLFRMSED

[2] = molecular target: T1, beta-catenin Armadillo domain, residues …; assay: SPR, immobilized β-catenin, MDM2 flowed in the presence of 1 µM Helicon H330 (1.m112)
[3] = molecular target: T2, active CDK2 (with T160 phosphorylated) (Homo sapiens (Human), UniProt P24941 1-298); assay: SPR, ligand CDK2 (pT160), no additive
[4] = molecular target: CDK2:Cyclin E1 (CCNE1) complex (UniProt P24864 81-363); assay: SPR, ligand CDK2 (pT160) : CCNE1
[5] = molecular target: T2, active CDK2 (with T160 phosphorylated); assay: SPR, ligand CDK2 (pT160), additives 2 mM AMPPNP, 5mM MgCl2
[6] = molecular target: T2, active CDK2 (with T160 phosphorylated); assay: SPR, ligand CDK2 (pT160), additive 200 nM Dinaciclib
[7] = molecular target: T3, PPIA, full length (residues 1-165) (human, UniProt P62937 1-165); assay: SPR, affinity fit
T3 construct: also called Cyclophilin A; peptidyl-prolyl cis-trans isomerase A

[8] = molecular target: T1, beta-catenin Armadillo domain, residues …; assay: SPR, alanine-scanning table
[9] = molecular target: T3, PPIA, full length (residues 1-165); assay: assay not named on the sheet; printed beside the co-crystal structure

T3 sequence (P62937 whole entry, the tested form may be a part): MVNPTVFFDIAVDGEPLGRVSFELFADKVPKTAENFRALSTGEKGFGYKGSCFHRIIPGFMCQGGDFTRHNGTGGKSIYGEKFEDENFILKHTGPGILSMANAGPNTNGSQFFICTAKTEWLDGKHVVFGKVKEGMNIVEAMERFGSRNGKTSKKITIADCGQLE

B1: MDM2 p53-binding domain, residues 17-111, C17S (enzyme)
chain: SQIPASEQETLVRPKPLLLKLLKSVGAQKDTYTMKEVLFYLGQYIMTKRLYDEKQQHIVYCSNDLLGDLFGVPSFSVKEHRKIYTMIYRNLVVVN
notes: Form for crystallography and the FP assays
Work on B1 yielded a Kd [1] of 1340 nM and a Kd [2] of 254 nM.

Binder Ac-DPAWWVCAIAAIECSDV-NH2 (bridge 7-14; not fully specified (bridges), Cluster C51) [FP19711] has a Kd [3] of 1700 nM, a Kd [4] of 1700 nM and a Kd [5] of 900 nM. It also gave a Kd [6] of 2000 nM.

B2: FP33215 (peptide)
peptide: Ac-WWVCAIAAIECSD-NH2
modifications: bridge 4-11; also: Cys staple linker not named
notes: also called truncated version of FP19711
B2 was tested, and the Kd [4] was 270 nM.

With Ac-DPANQDCHVAAWHCWQR-NH2 (bridge 7-14; not fully specified (bridges), Cluster C53) [FP29092] the Kd [7] was 3000 nM.

With Ac-PDCHIRAYVCH-NH2 (bridge 3-10; not fully specified (bridges), Cluster C54) [FP29103] the Kd [7] was 10000 nM.

B3: FP49251 (peptide)
stapled peptide: Ac-DPATARCEWAALHCELV-NH2
modifications: bridge 7-14; not fully specified (bridges); printed as Ac-DPATARCEWAALHCELV-NH2
notes: also called H-to-A member of the alanine-scanning series of FP01567
B3 was tested, and the Kd [8] was 400 nM.

B4: FP49252 (peptide)
stapled peptide: Ac-DPATHACEWAALHCELV-NH2
modifications: bridge 7-14; not fully specified (bridges); printed as Ac-DPATHACEWAALHCELV-NH2
notes: also called R-to-A member of the alanine-scanning series of FP01567
B4 showed a Kd [8] of 300 nM.

B5: FP49259 (peptide)
stapled peptide: Ac-DPATHRCEWAALHCELA-NH2
modifications: bridge 7-14; not fully specified (bridges)
notes: also called V-to-A (last residue) member of the alanine-scanning series of FP01567
B5 gave a Kd [8] greater than 20000 nM.

B6: FP49258 (peptide)
stapled peptide: Ac-DPATHRCEWAALHCEAV-NH2
modifications: bridge 7-14; not fully specified (bridges); printed as Ac-DPATHRCEWAALHCEAV-NH2
notes: also called L-to-A (penultimate residue) member of the alanine-scanning series of FP01567
In the case of B6, the Kd [8] is reported as greater than 20000 nM.

B7: FP49257 (peptide)
stapled peptide: Ac-DPATHRCEWAALHCALV-NH2
modifications: bridge 7-14; not fully specified (bridges); printed as Ac-DPATHRCEWAALHCALV-NH2
notes: also called E-to-A (after the second Cys) member of the alanine-scanning series of FP01567
B7 showed a Kd [8] of 1000 nM.

B8: FP49253 (peptide)
stapled peptide: Ac-DPATHRCAWAALHCELV-NH2
modifications: bridge 7-14; not fully specified (bridges); printed as Ac-DPATHRCAWAALHCELV-NH2
notes: also called E-to-A member of the alanine-scanning series of FP01567
With B8 the Kd [8] was 2700 nM.

B9: FP49255 (peptide)
stapled peptide: Ac-DPATHRCEWAAAHCELV-NH2
modifications: bridge 7-14; not fully specified (bridges); printed as Ac-DPATHRCEWAAAHCELV-NH2
notes: also called L-to-A member of the alanine-scanning series of FP01567
B9 gave a Kd [8] greater than 20000 nM.

B10: FP49254 (peptide)
stapled peptide: Ac-DPATHRCEAAALHCELV-NH2
modifications: bridge 7-14; not fully specified (bridges); printed as Ac-DPATHRCEAAALHCELV-NH2
notes: also called W-to-A member of the alanine-scanning series of FP01567
Work on B10 yielded a Kd [8] greater than 20000 nM.

For Ac-PECHIEAYWCI-NH2 (bridge 3-10; not fully specified (bridges); printed as Ac-PECHIEA YWCI-NH2, Cluster C54) [FP29102], the Kd [9] was 11000 nM.
